In the RNAGym collection of RNA variant scans (doi:10.1073/pnas.2313332121):

B1: TPR t1 (parent)
chain: GACCAAUCUGCCCUCAGAGCUCGAGAACAUCUUCGGAUGCAGAGGAGGCAGGCUUCGGUGGCGCGAUAGCGCCAACGUCCUCAACCUCCAAUGCAUCCCACCACAUGAUGAUGCCUGAAGAGCCUUGGUUUUUUG

Variants of: B1
Experiment: polymerase ribozyme fitness, log enrichment relative to wild type (log ratio); higher = more active; in vitro selection for triplet polymerase activity
Summary of the method: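 PCR was used to build mutant libraries for each subunit of a heterodimeric triplet polymerase ribozyme, which were then transcribed. A single in vitro selection round, in triplicate, used a frozen incubation at −7 °C and recovered extended constructs by gel excision, streptavidin beads and RT-PCR. Fitness is the logarithm of genotype enrichment relative to wild-type enrichment, averaged over replicates with inverse-variance weights. The logarithm is base 2, and after Illumina sequencing only genotypes with ≥10 input reads and ≥1 read per output were kept.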

Variant | polymerase ribozyme fitness (log ratio)
GACCAAUCUGCCCUCAGAGCUCGAGAACAUCUUCGGAUGCAGAGGAGGCAGGCUUCGGUGGCGCGAUAGCGCCAACGUCCUCAACCUCAAAUGCAUCCCACCACAUGAUGUUGCCUGAAGAACCUUGGUUUUUUG | -4.54
GACCAAUCUGCCCUCAGAGCUCGAGAACAUCUUCGGAUGCAGAGGAGGCAGGCUUCGGUGGCGCGAUAGCGCCAACGUCCUCAACCUCUAAUGCAUCCCACCACAUGACGAUGCCUGAAGAGCCUUGGUUUUUUG | -3.31
GACCAAUCUGCCCUCAGAGCUCGAGAACAUCUUCGGAUGCAGAGGAGGCAGGCUUCGGUGGCGCGAUAGCGCCAACGUCCUCAACCUCGAAUGCAUCCCACCACAUGAUGAUGCCUGAACAGCCUUGGUUUUUUG | -0.58
GACCAAUCUGCCCUCAGAGCUCGAGAACAUCUUCGGAUGCAGAGGAGGCAGGCUUCGGUGGCGCGAUAGCGCCAACGUCCUCAACCUCUAAUGCAUCCCACCACAUGAUGAUGCCUGAAGAGACUUGGUUUUUUG | 0.125
GACCAAUCUGCCCUCAGAGCUCGAGAACAUCUUCGGAUGCAGAGGAGGCAGGCUUCGGUGGCGCGAUAGCGCCAACGUCCUCAACCUCAAAUGCAUCCCACCACAUGAUGAUGCCUGAAGAGCCUUGGGUUUUUG | -2.64
GACCAAUCUGCCCUCAGAGCUCGAGAACAUCUUCGGAUGCAGAGGAGGCAGGCUUCGGUGGCGCGAUAGCGCCAACGUCCUCAACCUCCCAUGCAUCCCACCACAUGAUGAUGCAUGAAGAGCCUUGGUUUUUUG | -0.409
GACCAAUCUGCCCUCAGAGCUCGAGAACAUCUUCGGAUGCAGAGGAGGCAGGCUUCGGUGGCGCGAUAGCGCCAACGUCCUCAACCUCCCCUGCAUCCCACCACAUGAUAAUGCCUGAAGAGCCUUGGUUUUUUG | -4.36
GACCAAUCUGCCCUCAGAGCUCGAGAACAUCUUCGGAUGCAGAGGAGGCAGGCUUCGGUGGCGCGAUAGCGCCAACGUCCUCAACCUCUAAUGCAUCCCACCACAUGAUGAUGCCUCAAGAGCCUUGGUUUUUUG | -4.26
GACCAAUCUGCCCUCAGAGCUCGAGAACAUCUUCGGAUGCAGAGGAGGCAGGCUUCGGUGGCGCGAUAGCGCCAACGUCCUCAACCUUCAAUGCAUCCCACCACAUGAUGAUGCCUGAAGAGCCUUGGCUUUUUG | -0.178
GACCAAUCUGCCCUCAGAGCUCGAGAACAUCUUCGGAUGCAGAGGAGGCAGGCUUCGGUGGCGCGAUAGCGCCAACGUCCUCAACCUCUAAUGCAUCCCACCACAUGGUGAUGCCUGAGGAGCCUUGGUUGCUUG | -1.34
GACCAAUCUGCCCUCAGAGCUCGAGAACAUCUUCGGAUGCAGAGGAGGCAGGCUUCGGUGGCGCGAUAGCGCCAACGUCCUCAACCUCUAAUGCAUCCCACCACAUGAUGAUGCCUGAAGAACCUUGGUUUUUUG | -0.697
GACCAAUCUGCCCUCAGAGCUCGAGAACAUCUUCGGAUGCAGAGGAGGCAGGCUUCGGUGGCGCGAUAGCGCCAACGUCCUCAACCUCUAAUGCAUCCCACCACAUGAUGAUGCCUGAAGAUCCUUGGUUUUUUG | -0.616
GACCAAUCUGCCCUCAGAGCUCGAGAACAUCUUCGGAUGCAGAGGAGGCAGGCUUCGGUGGCGCGAUAGCGCCAACGUCCUCAACCUCGAAUGCAUCCCACCACAUGAUUAUGCCUGAAGAGCCUUGGUUUUUUG | -2.85
GACCAAUCUGCCCUCAGAGCUCGAGAACAUCUUCGGAUGCAGAGGAGGCAGGCUUCGGUGGCGCGAUAGCGCCAACGUCCUCAACCUCAAAUACAUCCCACCACAAGAUGAUGCCUGAAGAGCCUUGGUUUUUUG | -3.07
GACCAAUCUGCCCUCAGAGCUCGAGAACAUCUUCGGAUGCAGAGGAGGCAGGCUUCGGUGGCGCGAUAGCGCCAACGUCCUCAACCUCAAAUGCAUCCCACCACAUGAUGCUGCCUGAAGAGCCUUGGUUUUUUG | -2.88
GACCAAUCUGCCCUCAGAGCUCGAGAACAUCUUCGGAUGCAGAGGAGGCAGGCUUCGGUGGCGCGAUAGCGCCAACGUCCUCAACCUCAAAUGCAUCCCACCACAUGAUGGUGCCUGAAGAGCCUUGGUUUUUUG | -1.35
GACCAAUCUGCCCUCAGAGCUCGAGAACAUCUUCGGAUGCAGAGGAGGCAGGCUUCGGUGGCGCGAUAGCGCCAACGUCCUCAACCUCUAAUGCAUCCCUCCACAUGAUGAUGCCUGAAGAGCCUUGGUUUUUUG | -1.41
GACCAAUCUGCCCUCAGAGCUCGAGAACAUCUUCGGAUGCAGAGGAGGCAGGCUUCGGUGGCGCGAUAGCGCCAACGUCCUCAACCUCAAAUGCAUCCCACCACAUGAUGAUGCCUGAAGAGCCUUGGUGUUUUG | -1.51
GACCAAUCUGCCCUCAGAGCUCGAGAACAUCUUCGGAUGCAGAGGAGGCAGGCUUCGGUGGCGCGAUAGCGCCAACGUCCUCAACCUUCAAUGCAUCCCACCACAUGAUGAUGCCUGAAGAGCCGUGGUUUUUUG | -1.39
GACCAAUCUGCCCUCAGAGCUCGAGAACAUCUUCGGAUGCAGAGGAGGCAGGCUUCGGUGGCGCGAUAGCGCCAACGUCCUCAACCUCAAUUGCAUCCCACCACAUGAUGAUGCCUGAAGAGCCUUGGUUUUUUG | -1.18
GACCAAUCUGCCCUCAGAGCUCGAGAACAUCUUCGGAUGCAGAGGAGGCAGGCUUCGGUGGCGCGAUAGCGCCAACGUCCUCAACCUCGAAUGCAUCCCACCACAUGAUGGUCCCUGAAGAGCCUUGGUUUUUUG | -3.54

Variant | polymerase ribozyme fitness (log ratio)
GACCAAUCUGCCCUCAGAGCUCGAGAACAUCUUCGGAUGCAGAGGAGGCAGGCUUCGGUGGCGCGAUAGCGCCAACGUCCUCAACCUCAAAUGCAUCCCACCACAUGAUGAUGCCUGAAGAGUCUUGGUUUUUUG | -0.0853
GACCAAUCUGCCCUCAGAGCUCGAGAACAUCUUCGGAUGCAGAGGAGGCAGGCUUCGGUGGCGCGAUAGCGCCAACGUCCUCAACCUCGAAUGCAUCCCACCAAAUGAUGAUGCCUGAAGAGCCUUGGUUUUUUG | -3.34
GACCAAUCUGCCCUCAGAGCUCGAGAACAUCUUCGGAUGCAGAGGAGGCAGGCUUCGGUGGCGCGAUAGCGCCAACGUCCUCAACCUCCCAUGCAUCCCACCAUCUGAUGAUGCCUGAAGAGCCUUGGUUUUUUG | -5.64
GACCAAUCUGCCCUCAGAGCUCGAGAACAUCUUCGGAUGCAGAGGAGGCAGGCUUCGGUGGCGCGAUAGCGCCAACGUCCUCAACCUCAAAUGCAUCCCACCACAUGAUGAUGCCUGAAGUGCCGUGGUUUUUUG | -0.211
GACCAAUCUGCCCUCAGAGCUCGAGAACAUCUUCGGAUGCAGAGGAGGCAGGCUUCGGUGGCGCGAUAGCGCCAACGUCCUCAACCUCUAAUGCAUCCGCCCACAUGAUGAUGCCUGAAGAGGCUUGGUUUUUUG | -7.05
GACCAAUCUGCCCUCAGAGCUCGAGAACAUCUUCGGAUGCAGAGGAGGCAGGCUUCGGUGGCGCGAUAGCGCCAACGUCCUCAACCUCAAAUGCAUCCCACCACAUGAUGAUGCCUGAAAAGCCUUGCUUUCUUG | -3.37
GACCAAUCUGCCCUCAGAGCUCGAGAACAUCUUCGGAUGCAGAGGAGGCAGGCUUCGGUGGCGCGAUAGCGCCAACGUCCUCAACCUCGAAUGCAUCCCACCACAUGAUGCUGCCUGAAGAGCCUUGGUUUUUUG | -2.08
GACCAAUCUGCCCUCAGAGCUCGAGAACAUCUUCGGAUGCAGAGGAGGCAGGCUUCGGUGGCGCGAUAGCGCCAACGUCCUCAACCUCGAAUGCAUCCCACCACAUGAUGAUUCCUGAAGAGCCUUGGUUUUUUG | -3.93
GACCAAUCUGCCCUCAGAGCUCGAGAACAUCUUCGGAUGCAGAGGAGGCAGGCUUCGGUGGCGCGAUAGCGCCAACGUCCUCAACCUCGAAUGCAUCCCACCACAUGAUGAUACCUGAAGAGCCUUGGUUUUUUG | -3.42
GACCAAUCUGCCCUCAGAGCUCGAGAACAUCUUCGGAUGCAGAGGAGGCAGGCUUCGGUGGCGCGAUAGCGCCAACGUCCUCAACCUCUAAUGCAUCCCACCACAUGAUGAUGCAUGAAGAGCCUUGGUUUUUUG | 0.206
GACCAAUCUGCCCUCAGAGCUCGAGAACAUCUUCGGAUGCAGAGGAGGCAGGCUUCGGUGGCGCGAUAGCGCCAACGUCCUCAACCUCAAAUGAAUCCCACCACAUGAUGAUGCUUGAAGAGCCUUGGUAUUUUG | -3.36
GACCAAUCUGCCCUCAGAGCUCGAGAACAUCUUCGGAUGCAGAGGAGGCAGGCUUCGGUGGCGCGAUAGCGCCAACGUCCUCAACCUCGAAUUCAUCCCACCACAUGAUGAUGCCUGAAUAGCCUUGGUUUUUUG | -3.31
GACCAAUCUGCCCUCAGAGCUCGAGAACAUCUUCGGAUGCAGAGGAGGCAGGCUUCGGUGGCGCGAUAGCGCCAACGUCCUCAACCUCUAAUGCAUCCCACCACAUGAUGAUGCCUGAACAGCCUUGGUUUUUUG | 0.737
GACCAAUCUGCCCUCAGAGCUCGAGAACAUCUUCGGAUGCAGAGGAGGCAGGCUUCGGUGGCGCGAUAGCGCCAACGUCCUCAACCUCCCAUGCAUUCCACCACAUGAUGACGACUGAAGAGCCUUGGUUUUUUG | -3.18
GACCAAUCUGCCCUCAGAGCUCGAGAACAUCUUCGGAUGCAGAGGAGGCAGGCUUCGGUGGCGCGAUAGCGCCAACGUCCUCAACCUCAAAUGCAUCCCACCACAUGAUGAUGCCGGAAGAGGCUUGGUUUUUUG | -3.17
GACCAAUCUGCCCUCAGAGCUCGAGAACAUCUUCGGAUGCAGAGGAGGCAGGCUUCGGUGGCGCGAUAGCGCCAACGUCCUCAACCUCAAAUGCAUCCCACCACAUGAUGAUGCCUGAAGAGUGUUGGUUUUUUG | 1.14
GACCAAUCUGCCCUCAGAGCUCGAGAACAUCUUCGGAUGCAGAGGAGGCAGGCUUCGGUGGCGCGAUAGCGCCAACGUCCUCAACCUCAAAUGCAUCCCACCACCUGAUGAUGCCUGAAGAGCCUUGGUUUUUUG | -4.64
GACCAAUCUGCCCUCAGAGCUCGAGAACAUCUUCGGAUGCAGAGGAGGCAGGCUUCGGUGGCGCGAUAGCGCCAACGUCCUCAACCUCCCAUGCAUCCCUCCACAUGAUGGUGCCUGAAGAGCCUUGGUUUUUUG | -1.79
GACCAAUCUGCCCUCAGAGCUCGAGAACAUCUUCGGAUGCAGAGGAGGCAGGCUUCGGUGGCGCGAUAGCGCCAACGUCCUCAACCUCGAAUGCAUCCCCCCACAUGAUGAUGCCUGAAGAGCCUUGGUUUUUUG | -3.25
GACCAAUCUGCCCUCAGAGCUCGAGAACAUCUUCGGAUGCAGAGGAGGCAGGCUUCGGUGGCGCGAUAGCGCCAACGUCCUCAACCUCAAAUGCAUCCCACCACAUGAUGAUGCCUGAAGAGCUUUGGUUUUUUG | 0.618
GACCAAUCUGCCCUCAGAGCUCGAGAACAUCUUCGGAUGCAGAGGAGGCAGGCUUCGGUGGCGCGAUAGCGCCAACGUCCUCAACCUCCCAUGUAUCCCACCACAUGAUGAUGCCUGAAGAGCCUUGGUUUUUUG | -1.34
